Results taken from the supplement of paper PMC12764529.
± gives the half width of the 95% confidence interval.

Legend:
[1] = folding stability dG unfold from chymotrypsin proteolysis; higher = more stable
How it was run: (§1)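 Unfolding free energy was derived, per protease or combined, by relating Bayesian-fitted K50 values from sequencing counts to a sequence-predicted unfolded-state K50 and a shared folded-state K50. The underlying digests exposed cysteine-free mini-proteins under 80 residues, in a PA-tagged cDNA display construct, to trypsin and chymotrypsin at 11 threefold-diluted concentrations and to a no-protease condition. A filter kept only designs with AlphaFold2 dimer inter-PAE above 15.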

[2] = folding stability dG unfold from trypsin proteolysis; higher = more stable
How it was run: as §1

[3] = folding stability dG unfold (combined trypsin and chymotrypsin); higher = more stable
How it was run: as §1

Sequence	folding stability dG unfold [1] [kcal/mol]	folding stability dG unfold [2] [kcal/mol]	folding stability dG unfold [3] [kcal/mol]
SAGGSAMTLRLELRVRLQVFNEDGELLGERELDIEIELEGEPLEVPPPPEIDPEEAARLLGLDPDGSAGGSA [r15_572_TrMRF]	2.84 ± 0.039	0.909 ± 0.098	2.37 ± 0.25
SAGGMTITIPVTESGSLEEALALAERVAEEARAAGLEEVTITVTVYDPANGEVLYTKTRRVPVRPEASAGGS [r8_33_JUSTAS]	2.274 ± 0.0077	2.03 ± 0.032	2.21 ± 0.031
SLIPIRPLATSPSGDLLIEVPAEEDLVEEIKKYLKEKFPGYTPVEVKPVESPPLYLVLFSHPSGKKVWLGSA [r9_1164_JUSTAS]	1.35 ± 0.082	0.967 ± 0.03	1.24 ± 0.07
SAGGSAGGSAKKITVEITIEVNGKKYKVKAEIELDEETKTLTIKVTFPDGTEFEFTFKLPEESAGGSAGGSA [r18_239_TrROS_Hall]	5.72 ± 0.13	3.86 ± 0.22	5.76 ± 0.41
SAGGSAGGMYVKIKVTMTADELKKLFPNIKKGEKVTVELVIKVEKAPPVKVEKKKEKKVEVKLKSAGGSAGG [r6_211_TrROS_Hall]	2.21 ± 0.041	0.661 ± 0.062	1.74 ± 0.14
SGLVEAIAKALGAESVTPHPDGTFSLRLKDGSYLKIKVEVLEVRERPDGSPEFIVKIEIEVFEGGKPEDESA [r9_648_TrMRF]	5.94 ± 0.065	4.56 ± 0.14	> 6
SAGGMPKTITVERTLDVDPAVLASTTPEELVARVVEELRAEGVPISSVDPQTITRGATTVTVRVTLLESAGG [r13_432_JUSTAS]	2.322 ± 0.023	1.662 ± 0.014	2.08 ± 0.029
SAGGSAGGSEKIKEALKELGYDVEIEEIEVKKNKNGKLEIKIKLKPGMSEEEKKRIEEALKKLSAGGSAGGS [r12_352_TrROS_Hall]	2.79 ± 0.17	3.18 ± 0.4	2.84 ± 0.3
SAGGMSVSITVTVTPTEVRVVENPTNGVNTAFTETTVTVTVNHPSSVSPEEKAALIAAVKAANPGAASAGGS [r8_306_JUSTAS]	1.92 ± 0.57	2.86 ± 0.57	2.43 ± 0.49
SAGVVEELLKEFPDVEKVTSSSYPGPKVSQYVIYFPTPSGKKVTIKITVTQPRLPSNSTTSELSIELNDSAG [r5_398_JUSTAS]	2.25 ± 0.12	2.11 ± 0.12	2.08 ± 0.38
SAGGSAGGSAWRLYIGGQKIEIPPGGPVKLERHKNGWVKIEIKMPGGRKKEFTIPIPPGATSAGGSAGGSAG [r3_207_TrROS]	1.76 ± 0.17	1.23 ± 0.14	1.66 ± 0.18
SAGGPVFLGFEEALEFIEKAFENGEDVVVVARLPDGGLVVLEASGPDLDLRVVAVIPLPPPEEDPEKYSAGG [r13_839_TrMRF]	0.268 ± 0.14	1.5 ± 0.033	1.03 ± 0.091
SAGGSAGGSAGGKLIVLPVTSDEVFDFGDGPIPVPAGSIVVLEISPDGAKALVFSPEDLSAGGSAGGSAGGS [r10_353_TrMRF]	0.886 ± 0.065	1.12 ± 0.021	1 ± 0.087
SASLTLTITLPDGAKITSITVEEVDGELVLTEITVETTNENGEKTTVTRTIVLKLPPAPPAHPDDPALKSAG [r14_95_TrROS_Hall]	2.63 ± 0.12	2.13 ± 0.13	2.45 ± 0.15
SAGAKVTVEPVKVEPLPNGEVKVTAKVTIYDPNTTKPTEIEVTGTYKLHPNGKPVKPETIVAEAIKKAASAG [r5_604_TrMRF]	0.337 ± 0.17	0.426 ± 0.038	0.459 ± 0.14
SAGGMIRITTEDGEELSEEELAELEEAIRKGDLDEAVKKIEELLRERFGKEIKIKVEVFFPPPPPPESAGGS [r8_48_TrROS_Hall]	3.26 ± 0.092	3.79 ± 0.26	3.59 ± 0.15
SAGGSAGGSKGVKELVIVVPPDKPEKIEEFLKKLRDEYAKDIKVLEVKETPDGGYIAKIKITDSAGGSAGGS [r12_91_TrMRF]	1.96 ± 0.071	1.4 ± 0.041	1.85 ± 0.12
SSSVSVTRTRDPRTGRLVVTVSMNYEDDPEEAVEAAKALLEAAGLDVAEVLSITVDPSTGTVTIPIAVAPSA [r9_876_JUSTAS]	3.15 ± 0.076	2.79 ± 0.062	3.05 ± 0.064
SAGGSAGGMTVPITLPLDEYSPEEVEAKIKAIREEIEKKNPDKKISINVTLVPQPPEPTPENLRSAGGSAGG [r6_729_JUSTAS]	0.517 ± 0.023	-0.745 ± 0.14	0.299 ± 0.07
SWWYMVKIEIENGGKPIKIPVPVNDLDDFIDNAREAIPPDLADQLPPNMEVEVEVMPIPRVDPENGKPRPSA [r9_111_TrROS]	1.42 ± 0.15	0.866 ± 0.054	1.1 ± 0.15
SAGGSAGGSDLVRVEMLITKIVPGTGDPVETVKIEVEVPRSEIPKVIEEIPEGYEVTEIKFIPESAGGSAGG [r6_777_JUSTAS]	1.18 ± 0.062	2.05 ± 0.079	1.57 ± 0.11

Sequence	folding stability dG unfold [1] [kcal/mol]	folding stability dG unfold [2] [kcal/mol]	folding stability dG unfold [3] [kcal/mol]
SAGGSAGGSERWVKIWFPPGGTLEEASKMIEEWAQQLGLPITKIDEIEWDPGNGRVEITIRLKSAGGSAGGS [r12_131_TrROS]	2.013 ± 0.015	1.93 ± 0.046	2.02 ± 0.062
SAGGNPSASPVVTETELPDGSRVTTTTYPSGTTTRTVTDLVTGKKTLVTTTTTPGTGATTTTTTPVPPSAGG [r13_822_JUSTAS]	1.51 ± 0.022	0.151 ± 0.019	1.08 ± 0.03
SAGGSMIFETLGSEKLIKEKAEERGLDLVEYSVEGNKFFALLKDPAGKLVLTYSDEASVKKLGLDLSKLSAG [r5_12_JUSTAS]	0.523 ± 0.08	-0.265 ± 0.095	0.299 ± 0.081
SAGGGMVITTPQTTSTTFSPPTAPAVPAPFTQSSSFTIGNTKVTVTTTQAAGSGTTTVTLTTILPPLASAGG [r13_998_JUSTAS]	1.18 ± 0.089	1 ± 0.034	1.12 ± 0.065
SAGSGVILRTPEGKYVPLSALSEEEIKTAIEDPLSPAPPVTVEVTVTSVRLPVPRTVTTTEVVVTVLGSAGG [r19_232_JUSTAS]	0.233 ± 0.19	-0.00526 ± 0.21	0.115 ± 0.19
STSTTITYPTLTISVEESVLPDGTPRYTVTLHLPEKGVSIPVEVDSAAEAEEAVREAIRKLLPDETVEEESA [r9_749_JUSTAS]	2.24 ± 0.16	2.24 ± 0.12	2.23 ± 0.2
SAGGSAGGSAGGPDDWVEVYFIMVSIKPKEVKPDPNGGAEYEFEIKISIFPFWIPPDDISAGGSAGGSAGGS [r10_524_TrROS]	4.15 ± 0.18	3.33 ± 0.26	3.94 ± 0.22
SAGGSAGGRIPLEDIEIVEVSEETLPNTEKVYHVLVKLPEGYIEATFLPNTGLEEAVERLLALESAGGSAGG [r6_232_TrMRF]	0.493 ± 0.097	0.963 ± 0.053	0.788 ± 0.067
SAGGGSTVTTFDPSTGKTTVSIGTDPATGERTVTIVLKNGTPVTVPGPFPSVEEAEAAAAAAAAAAASAGGS [r16_319_JUSTAS]	0.824 ± 0.041	0.762 ± 0.043	0.818 ± 0.097
SAGGSAGGSAGGVKPGDFVLIKLTLTEKYYDPETGELIEEKEVELTILIPKGTSLEELKLSAGGSAGGSAGG [r7_591_TrROS_Hall]	1.96 ± 0.089	2.3 ± 0.17	2.17 ± 0.25
SAGGARVFEVTFPDGSRARIVLLPDGTLLLETDSLDNLVALLEALGVELVSIRRHPDGRVLAVARLPPSAGG [r19_257_TrMRF]	4.32 ± 0.14	4.49 ± 0.14	4.43 ± 0.082
SMKEGIEAAIDELKEALEKGEGEVRVVLRFEGFVLEITIKPKGYKIEDIEIEPLPDDIPFIREREEVPPESA [r9_308_TrMRF]	1.58 ± 0.19	1.23 ± 0.051	1.52 ± 0.24
SAGGSAGGSAGPEVIEIKNPKTGKTYRIVRNKDGKLLIYNEATGKVAVFKDGKIELVPAPSAGGSAGGSAGG [r17_476_TrROS_Hall]	0.825 ± 0.21	1.14 ± 0.07	1.05 ± 0.16
SAGGSAGGSAGKKKTITIKIPGMSKEEIAKLIKEKFGPNVKITEIKENKDNLLEITVEVESAGGSAGGSAGG [r11_580_TrROS_Hall]	2.79 ± 0.19	2.79 ± 0.22	2.99 ± 0.24
SMTVEVELTVTVEVVDPKTGKKKTVTVKVTVKVRVTEVKTKDGKTEVKVELSEEALEEARRLAEELAKKKSA [r9_698_TrROS_Hall]	2.95 ± 0.38	3.13 ± 0.13	2.89 ± 0.46
SAGGSMPETVKVRVRNADGSLLTLEITRDADGELTVTLEVDGKTVELSLEELEKLPPGVEVVEVEPSAGGSA [r2_431_TrROS_Hall]	2.44 ± 0.087	1.9 ± 0.087	2.26 ± 0.18
SAGGSAGGSAGPGLSITTTITTTTPAKLPNGTAPLRTTTTTIITELKPADPNNPVILANTSAGGSAGGSAGG [r11_236_JUSTAS]	0.278 ± 0.069	1.05 ± 0.053	0.746 ± 0.048
SAGGSAGGSAGGPDWRMISIPITFRFYVMEYDGGKPKKAEPIHEHPIPIMIMFPPDALKSAGGSAGGSAGGS [r10_492_TrROS]	3.35 ± 0.014	1.87 ± 0.032	2.91 ± 0.07
SAGGSAGGSKPEYVLRVKIYNEETGELVEEIEITVKSKEEALKALKKLLPKDNVKIEVEILPPSAGGSAGGS [r12_578_TrROS_Hall]	3.09 ± 0.25	3.34 ± 0.11	3.2 ± 0.17
SMYTADFILPDEVLKTVPLEGKSVEEALEKVKEIVKQLPPNTPLLVKISYTEVDPKTGTTRTGTITVPLKSA [r9_245_JUSTAS]	2.39 ± 0.044	2.06 ± 0.065	2.2 ± 0.19
SAGGSAGGPNIEIMSMFKHPNGTIVIFIRTPEGRYIVIKIPPPGNIKIVGVYPLPPGDPLLERLSAGGSAGG [r6_715_TrROS]	3.14 ± 0.12	2.43 ± 0.17	3.06 ± 0.2
